From publication PMC4027167, “The histone chaperones Vps75 and Nap1 form ring-like, tetrameric structures in solution” (Nucleic Acids Research, 2014) come the findings set out here.

Numbering of substitutions follows the chain as printed. In names and notes the source's numbering stands.

By stoichiometry N is commonly meant a count of units in the complex or per binding partner.

Data set [1] concerns the molecule itself. The experiment in a line: SEC-MALS; run at 500 mM NaCl after disulphide cross-linking via K78C at 150 mM NaCl. For orientation: Size exclusion chromatography separates by hydrodynamic size, large species first.
The next data set concerns the target T1, Rtt109 (UniProt Q07794 1-436).
T1 construct: expressed from a pET28a-derived vector, a gift from Paul Kaufman; also called histone acetyltransferase Rtt109
T1 sequence: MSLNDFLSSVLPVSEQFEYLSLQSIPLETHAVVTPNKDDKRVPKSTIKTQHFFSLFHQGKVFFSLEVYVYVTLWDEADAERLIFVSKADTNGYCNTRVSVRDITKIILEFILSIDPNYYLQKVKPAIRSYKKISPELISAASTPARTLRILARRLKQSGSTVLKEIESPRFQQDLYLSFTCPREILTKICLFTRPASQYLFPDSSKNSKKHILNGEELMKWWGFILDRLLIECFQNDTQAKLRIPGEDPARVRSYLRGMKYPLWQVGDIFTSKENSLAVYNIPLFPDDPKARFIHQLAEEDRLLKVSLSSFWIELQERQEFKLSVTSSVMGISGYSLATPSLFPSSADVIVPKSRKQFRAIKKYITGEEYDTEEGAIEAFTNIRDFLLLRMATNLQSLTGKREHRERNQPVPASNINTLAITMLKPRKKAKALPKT
Put plainly: PELDOR; 100 μM Vps75 Y35RX2 dimer with Rtt109 at ratios 2:0, 2:0.25, 2:0.5 and 2:1 (Vps75:Rtt109). The note with it: both partners purified.

Data set [2] deals with the molecule itself. The data set is described as above.

B1: Vps75 K78C (natural protein, budding yeast, UniProt P53853 1-264, looked up)
chain: MMSDQENENEHAKAFLGLAKAEEEVDAIEREVELYRLNKMKPVYEKRDAYIDEIAEFWKIVLSQHVSFANYIRASDFCYIDTIDKIKVEWLALESEMYDTRDFSITFHFHGIEGDFKEQQVTKVFQIKKGKDDQEDGILTSEPVPIEWPQSYDSINPDLIKDKRSPEGKKKYRQGMKTIFGWFRWTGLKPGKEFPHGDSLASLFSEEIYPFAVKYYAEAQRDLEDEEGESGLSADGDSEDDDGSLGEVDLPLSDEEPSSKKRKV
modifications: disulphide between cysteine 78 of opposing dimers after oxidation with Cu (II) phenanthroline
notes: Vps75 of budding yeast, point mutant in the C21A/C212A construct
As to B1, the “stoichiometry N” value in data set [1] turned out to be 4.

B2: Vps75 Y35RX2 (natural protein, budding yeast, UniProt P53853 1-264, looked up)
chain: B1 chain with Y35C, C78K
modifications: 3,4-Bis-MTSL crosslinking spin label (RX2) joining cysteine 35 of the two chains of the dimer; deuterated protein
notes: Vps75 of budding yeast, open reading frame, unique cysteine at position 35; One spin label for each dimer; also called singly labelled Vps75 Y35RX2 dimer; not shown: His6, N-terminal, cleaved
B2: the binding result (in the data set with Rtt109; in data set [2]) was “binds” throughout.
